Experiment [1] has as its target CD14 (UniProt P08571). Nature of the experiment: SPR; TLR2 or CD14 (ligands) immobilised on a CM5 chip; different SIC concentrations as analyte; 1:1 Langmuir fit. For orientation: In SPR one partner is held on a chip, and binding of the other changes the refractive index at the surface.
The target in experiment [2] is TLR2 (UniProt O60603). The experiment is described as above.

For orientation: Kd means a measure of binding affinity in units of concentration. A higher Kd goes with lower affinity.

Sequence of UniProt P08571 (P08571 20-345): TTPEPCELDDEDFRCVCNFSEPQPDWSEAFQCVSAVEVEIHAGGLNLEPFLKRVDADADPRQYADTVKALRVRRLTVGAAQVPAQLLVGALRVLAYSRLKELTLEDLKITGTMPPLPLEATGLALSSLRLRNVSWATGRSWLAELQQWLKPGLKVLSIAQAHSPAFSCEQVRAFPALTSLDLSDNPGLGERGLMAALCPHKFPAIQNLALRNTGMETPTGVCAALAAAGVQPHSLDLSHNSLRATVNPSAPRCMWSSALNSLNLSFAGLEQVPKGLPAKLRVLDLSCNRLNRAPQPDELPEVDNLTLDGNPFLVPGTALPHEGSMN
Sequence of UniProt O60603 (O60603 21-784): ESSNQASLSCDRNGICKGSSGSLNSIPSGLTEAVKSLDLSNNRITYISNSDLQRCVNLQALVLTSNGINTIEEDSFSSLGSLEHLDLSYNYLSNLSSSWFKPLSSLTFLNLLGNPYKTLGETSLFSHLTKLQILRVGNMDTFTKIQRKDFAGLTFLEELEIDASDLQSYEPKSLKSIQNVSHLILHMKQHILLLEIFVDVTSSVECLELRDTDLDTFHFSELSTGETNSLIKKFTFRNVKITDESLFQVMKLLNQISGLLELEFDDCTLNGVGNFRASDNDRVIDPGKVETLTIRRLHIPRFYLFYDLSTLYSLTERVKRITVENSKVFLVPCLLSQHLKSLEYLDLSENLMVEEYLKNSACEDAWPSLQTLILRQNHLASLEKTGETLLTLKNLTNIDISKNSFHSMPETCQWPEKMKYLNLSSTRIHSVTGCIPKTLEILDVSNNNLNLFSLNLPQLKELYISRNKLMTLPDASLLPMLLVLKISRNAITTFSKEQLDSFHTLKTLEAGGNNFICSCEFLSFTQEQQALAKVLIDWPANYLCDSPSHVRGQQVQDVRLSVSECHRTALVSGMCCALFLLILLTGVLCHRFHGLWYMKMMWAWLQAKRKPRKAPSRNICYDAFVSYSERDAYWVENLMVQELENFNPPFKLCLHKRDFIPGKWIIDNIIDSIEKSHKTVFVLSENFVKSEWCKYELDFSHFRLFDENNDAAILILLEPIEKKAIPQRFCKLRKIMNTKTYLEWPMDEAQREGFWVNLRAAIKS

For “Streptococcal inhibitor of complement (SIC) from S. pyogenes M1 strain AP1 (natural protein)”, the dissociation constant Kd in experiment [1] was found to be 2.52 µM; in experiment [2] it was 12.9 µM.

The record behind these values is PMC8027542.
